Data published in PMC11346174 (Investigative Ophthalmology & Visual Science, 2024).

T1: PEDF-IgG Fc fusion protein (PEDF-Fc) (human, UniProt P36955 20-418)
T1 sequence (looked up): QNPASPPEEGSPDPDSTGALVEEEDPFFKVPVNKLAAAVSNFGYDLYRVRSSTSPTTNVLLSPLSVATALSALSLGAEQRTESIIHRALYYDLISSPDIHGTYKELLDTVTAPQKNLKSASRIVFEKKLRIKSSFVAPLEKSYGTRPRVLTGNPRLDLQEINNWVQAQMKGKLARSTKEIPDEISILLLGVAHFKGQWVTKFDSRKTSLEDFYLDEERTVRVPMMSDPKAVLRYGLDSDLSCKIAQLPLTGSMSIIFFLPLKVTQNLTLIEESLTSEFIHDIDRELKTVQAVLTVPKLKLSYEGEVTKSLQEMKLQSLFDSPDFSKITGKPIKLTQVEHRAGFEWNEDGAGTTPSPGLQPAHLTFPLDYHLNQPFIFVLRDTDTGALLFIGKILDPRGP


Legend:
[1] = target: T1, PEDF-IgG Fc fusion protein (PEDF-Fc); test: peptide or protein array
[2] = target: T1, PEDF-IgG Fc fusion protein (PEDF-Fc); test: colorimetric cell binding assay

| binding result [1] | binding result [2] | Binder |
| --- | --- | --- |
| binds | – | EKNKRASVRRRIDQSNSHANI [VEGFR-1/Flt-1 amino acid stretch (1), 245-265 (D3), cellulose-bound peptides] |
| binds | – | YDKAFITVKHRKQQVLETVAGKR [VEGFR-1/Flt-1 amino acid stretch (2), 303-325 (D4), cellulose-bound peptides] |
| – | binds | NKRASVRRRIDQSNSHA [peptide AE10] |
| binds | – | IRGEHCNKKAVFSRISKFKSTRN |
| – | binds | AFITVKHRKQQVLETVA [peptide AF10] |
